Measurements reported in paper PMC6591361, “Recombinant production of human α2-macroglobulin variants and interaction studies with recombinant G-related α2-macroglobulin binding protein and latent transforming growth factor-β2” (Scientific Reports, 2019).

Experiments:
[1] = molecular target: N-terminal part of human α2-macroglobulin (N-hα2M) (human) (UniProt P01023); experiment: not stated; apparent mass of the purified hα2M fragments without reducing agents; method not named
[2] = molecular target: T1, native authentic human α2-macroglobulin (human, UniProt P01023 24-1474, thioester bond intact (native form)); experiment: native gel or EMSA; Sulfo-NHS-AMCA-labelled GRAB mixed with hα2M variants at a 4:1 molar ratio, buffer J, two hours at 37 °C, 10% native PAGE, gel fluorescence then Coomassie; conditions: both partners purified
T1 construct: human α2-macroglobulin, UniProt P01023, 1,474-residue precursor; as secreted it lacks the signal peptide (recombinant constructs begin at S24); Tetramer (680.6 kDa by SEC-MALLS); glycosylated; also called hα2M; native hα2M; source: purified from human blood plasma of individual donors (PEG 4,000 precipitation, zinc-chelating resin, IEC, SEC)
T1 sequence (looked up): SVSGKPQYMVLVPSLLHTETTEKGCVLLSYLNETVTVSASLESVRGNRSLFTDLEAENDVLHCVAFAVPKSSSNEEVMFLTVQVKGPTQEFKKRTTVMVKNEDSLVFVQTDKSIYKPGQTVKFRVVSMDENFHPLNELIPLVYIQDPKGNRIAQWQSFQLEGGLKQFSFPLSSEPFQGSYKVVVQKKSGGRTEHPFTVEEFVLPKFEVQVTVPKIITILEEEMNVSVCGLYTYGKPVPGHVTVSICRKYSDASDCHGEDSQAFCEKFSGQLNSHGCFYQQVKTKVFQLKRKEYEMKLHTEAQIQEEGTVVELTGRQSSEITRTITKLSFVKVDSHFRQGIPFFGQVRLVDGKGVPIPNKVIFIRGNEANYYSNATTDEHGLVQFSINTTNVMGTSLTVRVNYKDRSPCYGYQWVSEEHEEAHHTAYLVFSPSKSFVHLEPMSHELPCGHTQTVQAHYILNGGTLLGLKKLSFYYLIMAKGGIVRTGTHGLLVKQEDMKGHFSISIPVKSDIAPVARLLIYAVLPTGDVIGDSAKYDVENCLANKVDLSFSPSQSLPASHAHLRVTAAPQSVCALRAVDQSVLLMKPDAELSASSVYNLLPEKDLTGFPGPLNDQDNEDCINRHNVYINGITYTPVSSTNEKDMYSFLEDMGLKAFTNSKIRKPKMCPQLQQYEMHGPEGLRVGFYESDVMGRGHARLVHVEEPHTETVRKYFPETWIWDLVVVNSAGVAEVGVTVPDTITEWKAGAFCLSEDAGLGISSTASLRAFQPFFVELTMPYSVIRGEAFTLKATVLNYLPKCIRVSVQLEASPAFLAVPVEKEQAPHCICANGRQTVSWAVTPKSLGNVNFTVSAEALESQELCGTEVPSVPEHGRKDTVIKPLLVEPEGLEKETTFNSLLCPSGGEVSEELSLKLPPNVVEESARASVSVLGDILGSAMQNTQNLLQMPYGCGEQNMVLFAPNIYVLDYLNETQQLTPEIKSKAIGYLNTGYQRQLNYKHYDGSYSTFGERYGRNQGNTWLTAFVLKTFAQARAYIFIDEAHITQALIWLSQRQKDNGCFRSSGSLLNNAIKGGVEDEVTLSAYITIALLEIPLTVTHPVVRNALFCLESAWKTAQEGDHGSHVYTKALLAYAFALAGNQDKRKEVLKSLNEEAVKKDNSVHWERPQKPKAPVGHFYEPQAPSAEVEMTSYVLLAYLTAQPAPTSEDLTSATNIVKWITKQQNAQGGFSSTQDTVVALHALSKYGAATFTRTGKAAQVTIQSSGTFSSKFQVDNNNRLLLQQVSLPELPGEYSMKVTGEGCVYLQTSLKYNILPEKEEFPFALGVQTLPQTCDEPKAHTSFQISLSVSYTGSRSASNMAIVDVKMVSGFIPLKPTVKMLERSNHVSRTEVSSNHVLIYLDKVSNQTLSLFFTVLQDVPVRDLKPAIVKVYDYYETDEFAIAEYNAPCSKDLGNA

[3] = molecular target: T2, methylamine-induced authentic human α2-macroglobulin (human, UniProt P01023 24-1474, thioester bond opened by methylamine, producing a free cysteine); experiment: as above; conditions: both partners purified
T2 construct: human α2-macroglobulin, UniProt P01023; plasma protein as m1, induced form; Tetramer (684.1 kDa by SEC-MALLS); also called induced hα2M; induced authentic hα2M
T2 sequence (looked up): T1 sequence (looked up)

[4] = molecular target: the molecule itself; experiment: SEC; Superose 6 10/300 (full-length recombinant hα2M) or Superdex 75 10/300 (pro-TGF-β2), buffer D (20 mM Tris-HCl, 150 mM sodium chloride, pH 7.5)
[5] = molecular target: the molecule itself; experiment: SEC; Superose 6 10/300, buffer D (20 mM Tris-HCl, 150 mM sodium chloride, pH 7.5); data not shown

Molecule: N-terminal part of human α2-macroglobulin (N-hα2M) (from UniProt P01023 24-788) (domain or fragment)
- stoichiometry N [1]: 2

B1: G-related α2M-binding protein (GRAB), V34-N181, labelled with Sulfo-NHS-AMCA (domain or fragment)
chain: GAMVDSPIEQPRIIPNGGTLTNLLGNAPEKLALRNEERAIDELKKQAIEDKEATTAIEAASSDALEALADQTDALQSEEAAVVKADNAASDALEALADQTDALQSEEAEVVQSDNAASDAWEKAATPIALDVKKTKDTKPVVKKEERQNVN
modifications: sulfosuccinimidyl-7-amino-4-methylcoumarin-3-acetate (Sulfo-NHS-AMCA) label, sites not stated
notes: residues left at the N-terminus after TEV cleavage, from the cloning strategy; also called fluorophore-labelled GRAB; labelled GRAB; source: E. coli BL21 (DE3), purified, labelled with Sulfo-NHS-AMCA; not shown: His6, N-terminal, cleaved
- binding result [2]: binds
- binding result [3]: binds

B2: recombinant full-length human α2-macroglobulin from Expi293F cells (natural protein, UniProt P01023 24-1468, looked up)
chain: SVSGKPQYMVLVPSLLHTETTEKGCVLLSYLNETVTVSASLESVRGNRSLFTDLEAENDVLHCVAFAVPKSSSNEEVMFLTVQVKGPTQEFKKRTTVMVKNEDSLVFVQTDKSIYKPGQTVKFRVVSMDENFHPLNELIPLVYIQDPKGNRIAQWQSFQLEGGLKQFSFPLSSEPFQGSYKVVVQKKSGGRTEHPFTVEEFVLPKFEVQVTVPKIITILEEEMNVSVCGLYTYGKPVPGHVTVSICRKYSDASDCHGEDSQAFCEKFSGQLNSHGCFYQQVKTKVFQLKRKEYEMKLHTEAQIQEEGTVVELTGRQSSEITRTITKLSFVKVDSHFRQGIPFFGQVRLVDGKGVPIPNKVIFIRGNEANYYSNATTDEHGLVQFSINTTNVMGTSLTVRVNYKDRSPCYGYQWVSEEHEEAHHTAYLVFSPSKSFVHLEPMSHELPCGHTQTVQAHYILNGGTLLGLKKLSFYYLIMAKGGIVRTGTHGLLVKQEDMKGHFSISIPVKSDIAPVARLLIYAVLPTGDVIGDSAKYDVENCLANKVDLSFSPSQSLPASHAHLRVTAAPQSVCALRAVDQSVLLMKPDAELSASSVYNLLPEKDLTGFPGPLNDQDNEDCINRHNVYINGITYTPVSSTNEKDMYSFLEDMGLKAFTNSKIRKPKMCPQLQQYEMHGPEGLRVGFYESDVMGRGHARLVHVEEPHTETVRKYFPETWIWDLVVVNSAGVAEVGVTVPDTITEWKAGAFCLSEDAGLGISSTASLRAFQPFFVELTMPYSVIRGEAFTLKATVLNYLPKCIRVSVQLEASPAFLAVPVEKEQAPHCICANGRQTVSWAVTPKSLGNVNFTVSAEALESQELCGTEVPSVPEHGRKDTVIKPLLVEPEGLEKETTFNSLLCPSGGEVSEELSLKLPPNVVEESARASVSVLGDILGSAMQNTQNLLQMPYGCGEQNMVLFAPNIYVLDYLNETQQLTPEIKSKAIGYLNTGYQRQLNYKHYDGSYSTFGERYGRNQGNTWLTAFVLKTFAQARAYIFIDEAHITQALIWLSQRQKDNGCFRSSGSLLNNAIKGGVEDEVTLSAYITIALLEIPLTVTHPVVRNALFCLESAWKTAQEGDHGSHVYTKALLAYAFALAGNQDKRKEVLKSLNEEAVKKDNSVHWERPQKPKAPVGHFYEPQAPSAEVEMTSYVLLAYLTAQPAPTSEDLTSATNIVKWITKQQNAQGGFSSTQDTVVALHALSKYGAATFTRTGKAAQVTIQSSGTFSSKFQVDNNNRLLLQQVSLPELPGEYSMKVTGEGCVYLQTSLKYNILPEKEEFPFALGVQTLPQTCDEPKAHTSFQISLSVSYTGSRSASNMAIVDVKMVSGFIPLKPTVKMLERSNHVSRTEVSSNHVLIYLDKVSNQTLSLFFTVLQDVPVRDLKPAIVKVYDYYETDEFAIAEYNAPCS
notes: human α2-macroglobulin, UniProt P01023, residues S24-S1468; also called recombinant hα2M from Expi293F cells; pS6-hα2M-H6; source: Expi293F cells, transiently transfected, secreted (mouse Ig κ leader), purified (Ni-NTA, IEC, SEC); not shown: His6, C-terminal, kept
- stoichiometry N [4]: 4

B3: recombinant full-length human α2-macroglobulin from S2 cells (natural protein)
chain: SVSGKPQYMVLVPSLLHTETTEKGCVLLSYLNETVTVSASLESVRGNRSLFTDLEAENDVLHCVAFAVPKSSSNEEVMFLTVQVKGPTQEFKKRTTVMVKNEDSLVFVQTDKSIYKPGQTVKFRVVSMDENFHPLNELIPLVYIQDPKGNRIAQWQSFQLEGGLKQFSFPLSSEPFQGSYKVVVQKKSGGRTEHPFTVEEFVLPKFEVQVTVPKIITILEEEMNVSVCGLYTYGKPVPGHVTVSICRKYSDASDCHGEDSQAFCEKFSGQLNSHGCFYQQVKTKVFQLKRKEYEMKLHTEAQIQEEGTVVELTGRQSSEITRTITKLSFVKVDSHFRQGIPFFGQVRLVDGKGVPIPNKVIFIRGNEANYYSNATTDEHGLVQFSINTTNVMGTSLTVRVNYKDRSPCYGYQWVSEEHEEAHHTAYLVFSPSKSFVHLEPMSHELPCGHTQTVQAHYILNGGTLLGLKKLSFYYLIMAKGGIVRTGTHGLLVKQEDMKGHFSISIPVKSDIAPVARLLIYAVLPTGDVIGDSAKYDVENCLANKVDLSFSPSQSLPASHAHLRVTAAPQSVCALRAVDQSVLLMKPDAELSASSVYNLLPEKDLTGFPGPLNDQDNEDCINRHNVYINGITYTPVSSTNEKDMYSFLEDMGLKAFTNSKIRKPKMCPQLQQYEMHGPEGLRVGFYESDVMGRGHARLVHVEEPHTETVRKYFPETWIWDLVVVNSAGVAEVGVTVPDTITEWKAGAFCLSEDAGLGISSTASLRAFQPFFVELTMPYSVIRGEAFTLKATVLNYLPKCIRVSVQLEASPAFLAVPVEKEQAPHCICANGRQTVSWAVTPKSLGNVNFTVSAEALESQELCGTEVPSVPEHGRKDTVIKPLLVEPEGLEKETTFNSLLCPSGGEVSEELSLKLPPNVVEESARASVSVLGDILGSAMQNTQNLLQMPYGCGEQNMVLFAPNIYVLDYLNETQQLTPEIKSKAIGYLNTGYQRQLNYKHYDGSYSTFGERYGRNQGNTWLTAFVLKTFAQARAYIFIDEAHITQALIWLSQRQKDNGCFRSSGSLLNNAIKGGVEDEVTLSAYITIALLEIPLTVTHPVVRNALFCLESAWKTAQEGDHGSHVYTKALLAYAFALAGNQDKRKEVLKSLNEEAVKKDNSVHWERPQKPKAPVGHFYEPQAPSAEVEMTSYVLLAYLTAQPAPTSEDLTSATNIVKWITKQQNAQGGFSSTQDTVVALHALSKYGAATFTRTGKAAQVTIQSSGTFSSKFQVDNNNRLLLQQVSLPELPGEYSMKVTGEGCVYLQTSLKYNILPEKEEFPFALGVQTLPQTCDEPKAHTSFQISLSVSYTGSRSASNMAIVDVKMVSGFIPLKPTVKMLERSNHVSRTEVSSNHVLIYLDKVSNQTLSLFFTVLQDVPVRDLKPAIVKVYDYYETDEFAIAEYNAPCSKDLGNPTG
notes: human α2-macroglobulin, UniProt P01023, residues S24-N1473; residues from the construct before the His6-tag; Found in the induced form; also called recombinant hα2M from S2 cells; pIE-hα2M-H6; source: Drosophila S2 cells, transiently transfected, secreted (AKH signal peptide), purified (Ni-NTA, IEC, SEC); not shown: His6, C-terminal, kept
- stoichiometry N [5]: 4

B4: Strep-tagged latent human transforming growth factor-β2 (pro-TGF-β2) (natural protein)
chain: LSLSTCSTLDMDQFMRKRIEAIRGQILSKLKLTSPPEDYPEPEEVPPEVISIYNSTRDLLQEKASRRAAACERERSDEEYYAKEVYKIDMPPFFPSENAIPPTFYRPYFRIVRFDVSAMEKNASNLVKAEFRVFRLQNPKARVPEQRIELYQILKSKDLTSPTQRYIDSKVVKTRAEGEWLSFDVTDAVHEWLHHKDRNLGFKISLHCPCCTFVPSNNYIIPNKSEELEARFAGIDGTSTYTSGDQKTIKSTRKKNSGKTPHLLLMLLPSYRLESQQTNRRKKRALDAAYCFRNVQDNCCLRPLYIDFKRDLGWKWIHEPKGYNANFCAGACPYLWSSDTQHSRVLSLYNTINPEASASPCCVSQDLEPLTILYYIGKTPKIEQLSNMIVKSCKCS
notes: residues from the construct between the tag and L21; human pro-TGF-β2 (LAP plus mature TGF-β2), UniProt P61812, residues L21-S414; The purified protein was partially cleaved before A303 by host peptidases; also called Strep-tagged pro-TGF-β2; pS6-TGFB2-STREP; not shown: Strep-tag, N-terminal, kept
- stoichiometry N [4]: 2

B5: N-terminally octahistidine-tagged latent human transforming growth factor-β2 (pro-TGF-β2) (natural protein)
chain: B4 chain
notes: residues from the construct between the tag and L21; human pro-TGF-β2 (LAP plus mature TGF-β2), UniProt P61812, residues L21-S414; Partially cleaved before A303 by host peptidases; also called N-terminally His6-tagged pro-TGF-β2; pS6-TGFB2-H8; not shown: His8, N-terminal, kept
- stoichiometry N [4]: 2
